Legend:
[1] = target: HLA-B*44:03; assay: IEDB peptide-MHC binding, purified MHC/competitive/radioactivity; filed as Kd, often an IC50 or EC50 that approximates it; ≥ and ≤ were set here for values at or beyond the usual limits of such assays
[2] = target: HLA-B*18:01; assay: as above
[3] = target: HLA-B*40:01; assay: as above
[4] = target: HLA-B*44:02; assay: as above
[5] = target: HLA-B*45:01; assay: as above
[6] = target: HLA-B*40:02; assay: as above
[7] = target: HLA-B*46:01; assay: IEDB peptide-MHC binding, purified MHC/competitive/fluorescence; filed as Kd, often an IC50 or EC50 that approximates it; ≥ and ≤ were set here for values at or beyond the usual limits of such assays; settings: source organism: Homo sapiens
[8] = target: HLA-B*57:01; assay: as above; settings: source organism: Homo sapiens
[9] = target: HLA-A*26:01; assay: as above; settings: source organism: Homo sapiens
[10] = target: HLA-B*51:01; assay: as above; settings: source organism: Homo sapiens
[11] = target: HLA-B*15:17; assay: as above; settings: source organism: Homo sapiens
[12] = target: HLA-B*27:03; assay: as above; settings: source organism: Homo sapiens
[13] = target: HLA-B*18:01; assay: as above; settings: source organism: Homo sapiens
[14] = target: HLA-B*15:01; assay: as above
[15] = target: HLA-A*02:01; assay: IEDB peptide-MHC binding, purified MHC/direct/fluorescence; filed as Kd, often an IC50 or EC50 that approximates it; ≥ and ≤ were set here for values at or beyond the usual limits of such assays
[16] = target: HLA-B*58:01; assay: as above; settings: source organism: Yellow fever virus 17D
[17] = target: HLA-B*46:01; assay: as above; settings: source organism: Yellow fever virus 17D
[18] = target: HLA-B*57:01; assay: as above; settings: source organism: Yellow fever virus 17D
[19] = target: HLA-B*18:01; assay: as above; settings: source organism: Yellow fever virus 17D
[20] = target: HLA-B*48:01; assay: as above; settings: source organism: Yellow fever virus 17D
[21] = target: HLA-B*40:01; assay: as above; settings: source organism: Yellow fever virus 17D
[22] = target: HLA-A*69:01; assay: as above; settings: source organism: Yellow fever virus 17D
[23] = target: HLA-A*11:01; assay: as above; settings: source organism: Yellow fever virus 17D
[24] = target: HLA-A*01:01; assay: as above; settings: source organism: Yellow fever virus 17D
[25] = target: HLA-B*15:01; assay: as above; settings: source organism: Yellow fever virus 17D
[26] = target: HLA-A*03:01; assay: as above; settings: source organism: Yellow fever virus 17D
[27] = target: HLA-B*44:02; assay: as above; settings: source organism: Yellow fever virus 17D
[28] = target: HLA-A*31:01; assay: as above; settings: source organism: Yellow fever virus 17D
[29] = target: HLA-A*29:02; assay: as above; settings: source organism: Yellow fever virus 17D
[30] = target: HLA-A*02:01; assay: IEDB peptide-MHC binding, purified MHC/competitive/fluorescence; filed as Kd, often an IC50 or EC50 that approximates it; ≥ and ≤ were set here for values at or beyond the usual limits of such assays; settings: source organism: Salmonella enterica subsp. enterica serovar Typhi
[31] = source organism: SARS coronavirus Tor2
[32] = source organism: Mammarenavirus machupoense
[33] = source organism: Mammarenavirus lassaense
[34] = source organism: Mammarenavirus choriomeningitidis

In the case of LEGYAFEHIV, the Kd [1, 31] is reported as no less than 28.4 µM, the Kd [2, 31] is reported as 1.12 µM and the Kd [3, 31] is reported as 17.4 µM. The Kd [4, 31] was no less than 51.7 µM, the Kd [5, 31] was 0.316 µM and the Kd [6, 31] was 1.79 µM.
AESHMDADLA was tested, and the Kd [1, 31] was 1.12 µM, the Kd [2, 31] was no less than 48 µM and the Kd [3, 31] was 0.163 µM. For the same sequence, the Kd [4, 31] was 1.33 µM, the Kd [5, 31] was 0.00831 µM and the Kd [6, 31] was 0.0631 µM.
For PEIWLQLNT, the Kd [1, 32] was 2.35 µM, the Kd [2, 32] was no less than 77.5 µM and the Kd [3, 32] was no less than 76.1 µM. For the same sequence, the Kd [4, 32] was 14.4 µM, the Kd [5, 32] was no less than 21.1 µM and the Kd [6, 32] was 9.21 µM.
KEAYCQEFFL was tested, and the Kd [1, 33] was 1.18 µM, the Kd [2, 33] was no less than 30.5 µM and the Kd [3, 33] was 10.9 µM. The Kd [4, 33] was 0.52 µM, the Kd [5, 33] was 15.6 µM and the Kd [6, 33] was 0.0153 µM.
Sequence SDNGILCPT has a Kd [1, 32] of no less than 78.1 µM, a Kd [2, 32] of no less than 77.5 µM and a Kd [3, 32] of no less than 68.2 µM. For the same sequence, the Kd [4, 32] was no less than 27.8 µM, the Kd [5, 32] was no less than 77.7 µM and the Kd [6, 32] was 1.33 µM.
MDLLLFSTS was tested, and the Kd [1, 34] was 2.68 µM, the Kd [2, 34] was 4.09 µM and the Kd [3, 34] was 7.05 µM. For the same sequence, the Kd [4, 34] was 6.84 µM, the Kd [5, 34] was 1.06 µM and the Kd [6, 34] was 0.265 µM.
Work on MQDVFTFYV yielded a Kd [7] of no less than 20 µM, a Kd [8] of no less than 20 µM and a Kd [9] of no less than 20 µM. It also gave a Kd [10] of no less than 20 µM, a Kd [11] of no less than 20 µM and a Kd [12] of no less than 20 µM. For the same sequence, the Kd [13] was no less than 20 µM, the Kd ([14]; source organism: Homo sapiens) was no less than 20 µM and the Kd ([15]; source organism: Homo sapiens) was 0.0008 µM.
With RECYVQRFYL the Kd [1, 32] was 1.1 µM, the Kd [2, 32] was 0.518 µM and the Kd [3, 32] was 9.01 µM. For the same sequence, the Kd [4, 32] was 1.64 µM, the Kd [5, 32] was 1.56 µM and the Kd [6, 32] was 0.0053 µM.
For CRTAFKPVL, the Kd [16] was no less than 20 µM, the Kd [17] was no less than 20 µM and the Kd [18] was no less than 20 µM. It also gave a Kd ([15]; source organism: Yellow fever virus 17D) of no less than 20 µM, a Kd [19] of no less than 20 µM and a Kd [20] of no less than 20 µM. The Kd [21] was no less than 20 µM, the Kd [22] was no less than 20 µM and the Kd [23] was no less than 20 µM. The Kd [24] was no less than 20 µM, the Kd [25] was no less than 20 µM and the Kd [26] was no less than 20 µM. The Kd [27] was no less than 20 µM, the Kd [28] was no less than 20 µM and the Kd [29] was no less than 20 µM.
KQRCALPSL gave a Kd [30] of 0.796 µM and a Kd ([14]; source organism: Salmonella enterica subsp. enterica serovar Typhi) of 0.246 µM.
In the case of PEIWLQLNTL, the Kd [1, 32] is reported as 8.12 µM, the Kd [2, 32] is reported as 19.7 µM and the Kd [3, 32] is reported as 4.45 µM. For the same sequence, the Kd [4, 32] was 10.2 µM, the Kd [5, 32] was 12.2 µM and the Kd [6, 32] was 0.109 µM.
